According to article PMC5178350:

Molecular target: Haloferax volcanii deoxyhypusine synthase (T7-His-DHS) (Haloferax volcanii)
Assay: SEC; Sephacryl S-200 HR gel filtration column equilibrated with buffer A (20 mM Tris-HCl pH 8, 2 M NaCl), flow rate 0.3 mL/min; oligomer size from the estimated molecular weight

Substance: Haloferax volcanii deoxyhypusine synthase (T7-His-DHS) (enzyme)
- stoichiometry N: 4
